Results taken from the supplement of paper PMC10567573.

B1: SNAP91 (parent)
chain: FAAPSPATTASPAKVDSSGVIDLF

Variants of: B1
Test: protein stability index of a GFP-peptide fusion (GPS, HEK-293T) (PSI 1-6); higher = more stable
Details: c terminus: a fixed tail appended
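Also: lentivirally expressed fusions sorted by FACS into six bins by GFP to DsRed ratio, PSI derived from sequencing read proportions per bin multiplied by bin number.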

Protein stability index: each site, then its substitutions
P12: C 1.85, E 2.97, I 2.08, D 2.6, V 2.09, Q 2.6, M 2.17, T 2.15, K 1.96, Y 1.97, R 2.2, N 2.6, H 2.27, L 2.49, A 2.19, W 2.04, F 1.8, G 1.92, S 2.32
S18: N 2.43, H 2.12, E 2.72, Q 2.49, G 2.56, A 2.29, T 2.49, L 2.23, I 1.9, M 2.06, R 2.11, F 1.67, Y 1.66, D 2.97, V 2.1, P 2.83, W 1.37, K 2.46, C 2.1
K14: P 2.7, D 2.47, T 2.38, S 2.29, Y 2.24, L 2.28, V 2.77, W 1.58, C 2.41, R 2.28, A 2.94, I 2.61, N 2.52, E 2.81, M 2.3, H 2.46, G 2.05, F 1.86, Q 2.48
P6: Q 2.63, H 2.36, C 2.32, Y 1.7, I 1.84, N 2.94, A 2.18, D 3.01, S 2.65, T 2.23, M 2.44, V 1.82, G 2.31, K 2.16, E 3.08, R 1.95, W 2.35, L 1.49, F 2.02
D16: K 2.17, G 2.11, N 2.53, Q 1.9, P 2.19, S 1.91, A 1.9, Y 1.53, T 2.54, F 1.68, I 1.99, C 1.54, M 1.92, L 2.6, E 2.17, W 1.46, V 2.3, H 2.82, R 2.03
A10: W 2.84, L 2.74, T 2.36, S 2.32, C 1.94, V 2.94, E 2.56, G 1.64, K 2.23, M 2.24, I 2.42, Q 2.27, N 2.59, Y 1.72, R 1.99, D 2.57, H 2.29, F 1.92
P4: Q 2.2, N 2.43, S 1.71, V 2.13, W 1.76, M 2.18, Y 1.38, T 1.67, L 1.93, R 2.12
A7: V 2.53, C 1.75, F 2.65, E 3.06, N 2.46, I 2.1, T 2.11, W 3, Q 2.84, R 2.36, Y 2.54, G 2.85, H 2.7, L 1.9, S 2.49, P 2.62, M 2.23, K 2.65, D 2.25
S17: H 2.71, L 1.96, V 2.17, G 2.33, F 2.21, M 2.16, C 1.86, T 2.43, N 2.78, D 2.55, Q 2.52, I 1.7, A 2.55, Y 2.7, E 2.45, W 1.63, R 2.27, K 2.29, P 2.39
A13: K 3.05, G 1.98, V 2.79, W 2.12, L 2.43, H 2.3, I 1.92, C 2.29, Y 1.83, S 2.25, P 3.09, R 2.34, M 2.31, F 2.01, E 2.61, N 2.38, T 2.33, Q 2.37, D 2.71
S5: Q 2.34, R 2.1, K 2.66, A 2.51, F 1.97, H 1.96, G 2.45, V 2.64, D 3, N 2.59, I 1.95, M 2.24, E 3.18, L 2.81, C 2.16, Y 1.96, W 2.62
I21: H 2.51, Y 2.11, R 3.23, W 1.88, N 4.12, V 3.22, Q 3.05, C 2.63, P 2.8, T 3.07, G 3.64, K 3.79, D 3.96, F 2.25, L 2.65, A 2.49, S 3.37, M 3.15, E 3.96
S11: L 2.77, H 2.08, I 2.3, A 2.47, M 2.28, V 2.38, T 2.48, K 2.6, F 1.96, N 2.38, E 2.69, Y 2.35, Q 2.56, C 2.14, D 2.73, G 2.45, R 2.45, W 1.33
T9: Y 1.67, M 2.31, Q 2.46, F 1.63, R 2.42, V 2.61, N 2.58, S 2.77, D 3.22, K 2.91, C 2.43, E 2.77, G 2.28, W 3.89, A 3.02, L 2.25, H 2.66, I 2.16
G19: V 2.07, I 1.41, Q 2.69, K 2.38, M 1.92, S 2.58, F 1.26, W 1.55, H 2.4, A 2.56, L 2.24, E 2.84, N 2.59, C 1.83, T 2.57, D 2.94, Y 1.58, P 2.06, R 2.44
T8: K 2.42, L 2.27, G 2.3, W 2.33, Q 2.54, S 2.52, E 2.23, R 2.24, F 1.33, D 2.65, H 3.12, C 2.56, Y 1.94, V 2.85, I 2.85, M 2.7, N 2.58, A 2.62
D22: F 2.93, A 2.03, L 2.57, H 1.94, K 2.11, G 1.75, E 2.46
V20: N 2.77, K 2.78, T 2.51, L 2.57, R 2.63, P 2.79, W 1.54, C 2.08, Y 2.07, S 2.43, A 2.45, F 1.56, E 3.42, H 2.72, D 3.22, Q 2.96, I 2.25, M 2.5, G 2.77
V15: G 2.41, C 1.97, H 2.32, P 2.65, D 2.68, N 2.52, M 2.56, I 2.24, T 2.82, W 2.1, A 2.52, S 2.93, F 1.97, K 2.92, R 2.6, Q 2.04, Y 1.98, E 3.03, L 2.23
